Laboratory results as given in patent publication US20170253656A1 (SUTRO BIOPHARMA, published 2017).

Molecular target: T1, hu-CD74 antigen (R&D SYSTEMS catalog #3590-CD-050) (human, UniProt P04233-2 73-232, limits assumed)
T1 construct: Bought antigen; also called rhCD74; human CD74
T1 sequence (looked up): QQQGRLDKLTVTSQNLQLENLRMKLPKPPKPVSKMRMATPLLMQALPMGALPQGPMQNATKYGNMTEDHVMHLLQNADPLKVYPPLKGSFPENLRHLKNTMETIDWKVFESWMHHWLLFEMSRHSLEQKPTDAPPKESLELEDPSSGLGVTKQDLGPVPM
Assay: SPR (Biacore T200), captured on anti-human Fc, rhCD74 analyte

Kd: 6.58 nM
koff: 0.00177 s⁻¹
kon: 268000 M⁻¹ s⁻¹
B1: 1198-D04 paired with trastuzumab LC (Fab, V domains shown)
VH: EVQLVESGGGLVQPGGSLRLSCAASGFNINNYDIHWVRQAPGKGLEWVANIDPYNGTTYYADSVKGRFTISADTSKNTAYLQMNSLRAEDTAVYYCARVPWGFWAPFDYWGQGTLVTVSS
VL: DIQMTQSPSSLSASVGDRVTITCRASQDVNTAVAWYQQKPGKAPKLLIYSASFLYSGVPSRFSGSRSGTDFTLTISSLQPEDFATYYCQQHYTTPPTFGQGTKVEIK
notes: Called Fab clone
